Data on five molecules can be found in publication PMC4570272.

In this data set the target is T1, Puf5p RNA-binding domain (Saccharomyces cerevisiae, UniProt P39016 201-600).
T1 sequence: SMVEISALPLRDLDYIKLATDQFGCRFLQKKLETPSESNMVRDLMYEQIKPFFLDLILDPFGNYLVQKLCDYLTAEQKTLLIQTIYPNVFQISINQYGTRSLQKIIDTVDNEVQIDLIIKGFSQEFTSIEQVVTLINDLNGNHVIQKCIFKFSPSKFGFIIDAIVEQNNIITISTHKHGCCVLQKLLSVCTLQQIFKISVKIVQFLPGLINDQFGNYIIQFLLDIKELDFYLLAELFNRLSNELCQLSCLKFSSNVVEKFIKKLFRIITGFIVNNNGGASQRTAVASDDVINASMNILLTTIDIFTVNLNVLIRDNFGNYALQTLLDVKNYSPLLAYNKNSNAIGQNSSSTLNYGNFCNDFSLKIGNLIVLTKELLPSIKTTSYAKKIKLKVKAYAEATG
Kind of data set: EMSA; EMSA: 10 mM HEPES pH 7.4, 50 mM NaCl, 1 mM EDTA, 0.1 mg/ml BSA, 0.01% Tween 20, 0.1 mg/ml yeast tRNA, 100 pM RNA, overnight at 4 C.
In turn, UGUAAUGAUUA (ssRNA) [AAT2 (11)] returned a Kd of 345 nM.

UGUAUAUA (ssRNA) [NRE (8)] had a Kd of 3200 nM.

UGUACUAUA (ssRNA) [SMX2 (9)]: the Kd was 28.4 nM.

Molecule UGUAACUUUUUA (ssRNA) [AMN1 (12)] gave a Kd of 106 nM.

In turn, UGUAUUUGUA (ssRNA) [MFA2 (10)] registered a Kd of 179 nM.
